Consider 2 molecules from patent publication US7910550B2, “Human kunitz-type inhibitor with enhanced antifibrinolytic activity” (STC.UNM, priority 2004, dated 2011).

The subject of assay [1] is VEGF-induced angiogenesis. Kind of assay: VEGF-induced chorioallantoic membrane assay. Format: in vivo. The conditions noted are these: preliminary studies.
The test system of another assay is HT-1080 cells. Nature of the assay: Apoptosis detection by AO/EB staining. Format: cell-based, human. Conditions: 1 μM, 48 h; approximately 5% in vehicle-treated cells. The method, then: All cell lines were maintained in Dulbecco's minimal essential medium (DMEM), supplemented with heat-inactivated 10% fetal bovine serum and penicillin-streptomycin. The cells were cultured either in 6- or 12-well plates at 37° C. in a humidified atmosphere containing 6% CO2. At confluence, the cells were treated with fresh medium containing either wild-type TFPI-2, R24K KD1, or R24Q KD1. Cells were treated in duplicate with purified proteins at concentrations ranging from 0.5 μM to 10 μM for different time intervals. One set were also treated with PBS to serve as a control. The Limulus Amebocyte Lysate (LAL) assay was performed on each protein preparation to determine the presence of any endotoxin/LPS, and only trace amounts of endotoxin (<0.5 ng/L) were detected in each protein preparation.
Cells were grown to confluence in two-chamber culture slides containing 2 ml medium. For AO/EB staining, the cultures were treated with recombinant proteins as described above. […] Cells were viewed within 30 minutes of staining and counted using a Zeiss axiocam epifluorescence microscope (Carl Zeiss, Inc., Thornwood, N.Y.) equipped with a triple cube filter [DAPI/FITC/RITC]. […] Experiments were performed in triplicate, and a minimum of 100 total live and apoptotic cells were counted in each treatment.

Assay [2] deals with factor VIIa-tissue factor complex (Homo sapiens, UniProt P08709). Nature of the assay: Inhibition assay for factor VIIa-tissue factor amidolytic activity (S-2288). Format: biochemical. On the set-up: purchased Novo Nordisk (Copenhagen, Denmark) for factor VIIa (provided as a gift); soluble tissue factor prepared in house by a published method (Petersen et al., 1996). The conditions noted are these: relative to wild-type KD1. The method, then: Recombinant soluble human tissue factor (100 nM) and factor VIIa (50 nM) were incubated in a TBS-BSA buffer/5 mM CaCl2 for 15 minutes at 37° C. Following this incubation, aliquots (100 μl) were dispensed into a 96-well microtitration plate and treated with serial dilutions of inhibitors dissolved in TBS buffer. After 15 minutes of incubation, 30 μl of S-2288 (final concentration, 1 mM) was added to each well and the absorbance at 405 nm was determined as described earlier.
factor VIIa-tissue factor complex, sequence (P08709 213-466 limits assumed): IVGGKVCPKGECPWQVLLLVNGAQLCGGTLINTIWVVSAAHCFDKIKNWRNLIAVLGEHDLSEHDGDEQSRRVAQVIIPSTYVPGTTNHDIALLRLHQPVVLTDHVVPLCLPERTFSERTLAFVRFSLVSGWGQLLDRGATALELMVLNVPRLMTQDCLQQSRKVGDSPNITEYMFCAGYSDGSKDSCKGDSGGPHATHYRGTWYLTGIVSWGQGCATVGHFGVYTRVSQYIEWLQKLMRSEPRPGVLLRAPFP
factor VIIa-tissue factor complex, sequence (P08709 61-212 partner limits assumed): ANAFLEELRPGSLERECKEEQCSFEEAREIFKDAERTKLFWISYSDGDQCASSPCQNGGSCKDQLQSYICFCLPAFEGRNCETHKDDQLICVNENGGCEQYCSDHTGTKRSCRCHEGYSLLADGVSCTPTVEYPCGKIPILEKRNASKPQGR
factor VIIa-tissue factor complex, sequence (P13726 33-251 partner limits assumed): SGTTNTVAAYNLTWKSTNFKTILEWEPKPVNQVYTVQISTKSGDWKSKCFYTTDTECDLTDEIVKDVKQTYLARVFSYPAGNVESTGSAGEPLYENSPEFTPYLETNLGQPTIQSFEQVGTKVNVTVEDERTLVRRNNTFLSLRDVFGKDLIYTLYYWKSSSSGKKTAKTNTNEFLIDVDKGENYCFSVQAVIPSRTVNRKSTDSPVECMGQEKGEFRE
The apparent inhibition constant, Ki′ was determined using the non-linear regression data analysis program Ultrafitfv3.0 (Biosoft). Trypsin and plasmin inhibitory data were analyzed according to the following equation for a tight-binding inhibitor: vi=v0[√(Ki′+[I]0+[E]0)^2−4[I]0[E]0−(Ki′+[I]0−[E]0)]/2[E]0 where vi and v0 are the inhibited and uninhibited rates, respectively, and [I]0 and [E]0 are the total concentrations of inhibitor and enzyme, respectively. Factor VIIa-tissue factor inhibition data, where Ki>>[E]0, were analyzed according to the following equation: vi=v0/(1+[I]0/Ki′) Ki values were obtained by correcting for the effect of substrate according to Bieth et al. (Biochem. Med., 32:387-397, 1984), where Ki=Ki′/(1+[S]/Km) Results Molecular Modeling and Selection of Mutations

B1: TFPI-2: Human tissue factor pathway inhibitor-2, 213 amino acid polypeptide with three tandem Kunitz-type domains (SEQ ID NO:1) (protein, listed as Homo sapiens)
chain: DAAQEPTGNNAEICLLPLDYGPCRALLLRYYYDRYTQSCRQFLYGGCEGNANNFYTWEACDDACWRIEKVPKVCRLQVSVDDQCEGSTEKYFFNLSSMTCEKFFSGGCHRNRIENRFPDEATCMGFCAPKKIPSFCYSPKDEGLCSANVTRYYFNPRYRTCDAFTYTGCGGNDNNFVSREDCKRACAKALKKKKKMPKLRFASRIRKIRKKQF
As for B1, in assay [1], the anti-angiogenic effect result is “potent and dose-dependent anti-angiogenic effect”. In the assay on HT-1080 cells, the “apoptotic cells (AO/EB staining)” value was 39%.

B2: R24K KD1: KD1 with lysine in place of arginine at position 24 (SEQ ID NO:3) (protein)
chain: DAAQEPTGNNAEICLLPLDYGPCKALLLRYYYDRYTQSCRQFLYGGCEGNANNFYTWEACDDACWRIEKVPKV
modifications: mutated active domain
For the molecule B2, the “reduction in inhibitory activity towards factor VIIa / VIIa-TF” value in assay [2] is “approximately five-fold”.
